Measurements as given in patent US20160046675A1 (US Dept. of Health and Human Services, published 2016).

Biological target: RSV F glycoprotein on RSV-infected HEp-2 cells and on RSV virions (respiratory syncytial virus; strain not …, UniProt P03420 26-109; P03420 137-574)
Test: cell-based or functional assay

RSV F glycoprotein on RSV-infected HEp-2 cells and on RSV virions, sequence (P03420 26-109, chain 1 of 2): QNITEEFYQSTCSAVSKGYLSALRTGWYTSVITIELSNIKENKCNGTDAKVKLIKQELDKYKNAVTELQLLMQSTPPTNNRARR
RSV F glycoprotein on RSV-infected HEp-2 cells and on RSV virions, sequence (P03420 137-574, chain 2 of 2): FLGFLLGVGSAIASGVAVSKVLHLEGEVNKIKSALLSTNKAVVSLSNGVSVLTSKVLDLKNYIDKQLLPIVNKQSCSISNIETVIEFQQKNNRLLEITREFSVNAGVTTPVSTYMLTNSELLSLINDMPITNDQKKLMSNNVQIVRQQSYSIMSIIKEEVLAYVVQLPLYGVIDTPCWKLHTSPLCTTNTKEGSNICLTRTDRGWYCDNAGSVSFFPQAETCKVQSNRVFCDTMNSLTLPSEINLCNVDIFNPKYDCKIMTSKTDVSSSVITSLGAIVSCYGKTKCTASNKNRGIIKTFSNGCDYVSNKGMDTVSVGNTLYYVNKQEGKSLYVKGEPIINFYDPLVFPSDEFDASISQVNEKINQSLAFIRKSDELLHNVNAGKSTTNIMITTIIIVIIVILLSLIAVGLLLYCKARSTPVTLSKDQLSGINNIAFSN

B1: AM22 monoclonal antibody (antibody, V domains shown)
VH: QVQLVQSGAEVKKPGATVKVSCKISGHTLIKLSIHWVRQAPGKGLEWMGGYEGEVDEIFYAQKFQHRLTVIADTATDTVYMELGRLTSDDTAVYFCGTLGVTVTEAGLGIDDYWGQGTLVTVSS
VL: EIVLTQSPGTLSLSPGERATLSCRASQIVSRNHLAWYQQKPGQAPRLLIFGASSRATGIPVRFSGSGSGTDFTLTINGLAPEDFAVYYCLSSDSSIFTFGPGTKVDFKR
RSV neutralization (flow cytometry, RSV-GFP on HEp-2 cells): ~50 fold (potency relative to palivizumab)
